Several values for one entry are separate records, joined by “and”; a condition that tells them apart may be missing. Equal entries are not always repeated. One block for each molecule: values may come before it.
Columns and labels:
[1] = biological target: (N67D/)K113N-BS-RNase (bovine) (UniProt P00669); experiment: SEC; oligomers induced by lyophilisation from 40% acetic acid, re-dissolved in 0.2 or 0.4 M NaPi pH 6.7; Sephadex G-100 (0.1 M ammonium acetate pH 5.65) or Superdex 75 10/300 GL (0.2 or 0.4 M NaPi pH 6.7), room temperature; amounts as percent area of SEC peaks
[2] = biological target: (N67D/)K113N-BS-RNase (bovine) (UniProt P00669); experiment: SEC; thermally induced oligomerisation: 150-200 mg/ml in aqueous media (40% EtOH, with or without guanidine, and others), 45, 50 or 60°C for 1 h, then 0.2 M NaPi pH 6.7; Superdex 75
[3] = biological target: (N67D/)K113N-BS-RNase (bovine) (UniProt P00669); experiment: as above; remark: listed apart in the source
[4] = biological target: DFDNB-cross-linked native dimer of N67D-BS-RNase (bovine) (UniProt P00669); experiment: SEC; oligomers induced by lyophilisation from 40% acetic acid, re-dissolved in 0.2 or 0.4 M NaPi pH 6.7; Sephadex G-100 (0.1 M ammonium acetate pH 5.65) or Superdex 75 10/300 GL (0.2 or 0.4 M NaPi pH 6.7), room temperature; amounts as percent area of SEC peaks
[5] = biological target: T1, bovine pancreatic ribonuclease (RNase A) (bovine), P61823; experiment: SEC; thermally induced oligomerisation: 150-200 mg/ml in aqueous media (40% EtOH, with or without guanidine, and others), 45, 50 or 60°C for 1 h, then 0.2 M NaPi pH 6.7; Superdex 75; details: remark: other sources report otherwise
T1 chain: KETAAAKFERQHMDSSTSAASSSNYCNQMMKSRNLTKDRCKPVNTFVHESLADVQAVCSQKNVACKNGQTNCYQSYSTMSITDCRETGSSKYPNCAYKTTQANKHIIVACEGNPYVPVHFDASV

[6] = biological target: T1, bovine pancreatic ribonuclease (RNase …); experiment: SEC; oligomers induced by lyophilisation from 40% acetic acid, re-dissolved in 0.2 or 0.4 M NaPi pH 6.7; Sephadex G-100 (0.1 M ammonium acetate pH 5.65) or Superdex 75 10/300 GL (0.2 or 0.4 M NaPi pH 6.7), room temperature; amounts as percent area of SEC peaks; details: remark: other sources report otherwise

stoichiometry N [1]: 4
yield of dimer D (% of the total) (% of the total) [1]: 53.7
yield of hexamers H (% of the total) (% of the total) [1]: 10.9
yield of larger oligomers L.O. (% of the total) (% of the total) [1]: 9.9
yield of tetramer TT1/C (% of the total) (% of the total) [1]: 13.3
yield of tetramer TT2/N (% of the total) (% of the total) [1]: 12.2
stoichiometry N [2]: > 4
stoichiometry N [3]: 4
Molecule: (N67D/)K113N-BS-RNase (from UniProt P00669 27-150) (enzyme)

stoichiometry N [4]: 4
Molecule: DFDNB-cross-linked native dimer of N67D-BS-RNase (from UniProt P00669 27-150) (enzyme)

stoichiometry N [5]: 2
stoichiometry N [6]: 2 and 3 and 4
B1: bovine pancreatic ribonuclease (RNase A), P61823 27-150 (enzyme)
chain: T1 chain

— publication PMC3469567
